Data on three molecules can be found in patent US20090048164A1 (WALTER AND ELIZA HALL INSTITUTE OF MEDICAL RESEARCH, published 2009).

The target in test [1] is T1, Bcl-w.
T1 chain: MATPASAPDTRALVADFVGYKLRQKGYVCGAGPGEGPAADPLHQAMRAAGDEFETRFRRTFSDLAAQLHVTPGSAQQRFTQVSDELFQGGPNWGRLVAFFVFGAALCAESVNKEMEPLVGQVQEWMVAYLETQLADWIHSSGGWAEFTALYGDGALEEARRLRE
The experiment in a line: competition phage ELISA.

Test [2] concerns the target Bcl-2. The experiment in a line: competition phage ELISA. A general note: An ELISA detects its analyte on a solid surface through an enzyme-linked reagent.

Sequence of Bcl-2 (chain, as listed by the source): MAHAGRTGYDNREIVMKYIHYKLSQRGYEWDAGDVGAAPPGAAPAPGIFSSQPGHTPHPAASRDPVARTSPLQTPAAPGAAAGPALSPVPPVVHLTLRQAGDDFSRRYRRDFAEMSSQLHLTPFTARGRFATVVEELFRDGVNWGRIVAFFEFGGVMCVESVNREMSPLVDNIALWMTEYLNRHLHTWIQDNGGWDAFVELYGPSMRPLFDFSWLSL

B1: Bad BH3 wild type, phage-displayed (peptide)
peptide: NLWAAQRYGRELRRMSDEFVDSFKKG
notes: M13 phage display: FLAG-26mer-GGGT-g3(249-406); also called wtBad
In test [1], B1 showed a Fold/wt of 1 fold and an IC50 of 37 nM. Further, in test [2], the Fold/wt was found to be 1 fold and the IC50 was 13 nM.

B2: Bad BH3 K25A, phage-displayed (peptide)
peptide: NLWAAQRYGRELRRMSDEFVDSFKAG
notes: M13 phage display: FLAG-26mer-GGGT-g3(249-406)
Take B2: the Fold/wt in test [1] and in test [2] was 1 fold throughout. The IC50 in test [1] was 46 nM; in test [2], 13 nM.

B3: Bad BH3 G26E, phage-displayed (peptide)
peptide: NLWAAQRYGRELRRMSDEFVDSFKKE
notes: as for B2
In the case of B3, the Fold/wt in test [1] and in test [2] was 1 fold in each case. In addition, the IC50 worked out at 37 nM in test [1] and 15 nM in test [2].

What is called IC50 is the point on the concentration scale where inhibition reaches its midpoint. Low values mean inhibition by little substance, high ones a need for much substance.
